In PMC2063867 (The Journal of Cell Biology, 2006):

How the values were obtained:
Assay in all cases: co-IP
S273A-paxillin-GFP = S273A-paxillin-GFP (UniProt P49024 1-559, S273A)
S273D-paxillin-GFP = S273D-paxillin-GFP (UniProt P49024 1-559, S273D)
[1] = target: T1, FLAG-GIT1 (synthesized in vitro) (UniProt Q9Y2X7 1-761)
T1 sequence: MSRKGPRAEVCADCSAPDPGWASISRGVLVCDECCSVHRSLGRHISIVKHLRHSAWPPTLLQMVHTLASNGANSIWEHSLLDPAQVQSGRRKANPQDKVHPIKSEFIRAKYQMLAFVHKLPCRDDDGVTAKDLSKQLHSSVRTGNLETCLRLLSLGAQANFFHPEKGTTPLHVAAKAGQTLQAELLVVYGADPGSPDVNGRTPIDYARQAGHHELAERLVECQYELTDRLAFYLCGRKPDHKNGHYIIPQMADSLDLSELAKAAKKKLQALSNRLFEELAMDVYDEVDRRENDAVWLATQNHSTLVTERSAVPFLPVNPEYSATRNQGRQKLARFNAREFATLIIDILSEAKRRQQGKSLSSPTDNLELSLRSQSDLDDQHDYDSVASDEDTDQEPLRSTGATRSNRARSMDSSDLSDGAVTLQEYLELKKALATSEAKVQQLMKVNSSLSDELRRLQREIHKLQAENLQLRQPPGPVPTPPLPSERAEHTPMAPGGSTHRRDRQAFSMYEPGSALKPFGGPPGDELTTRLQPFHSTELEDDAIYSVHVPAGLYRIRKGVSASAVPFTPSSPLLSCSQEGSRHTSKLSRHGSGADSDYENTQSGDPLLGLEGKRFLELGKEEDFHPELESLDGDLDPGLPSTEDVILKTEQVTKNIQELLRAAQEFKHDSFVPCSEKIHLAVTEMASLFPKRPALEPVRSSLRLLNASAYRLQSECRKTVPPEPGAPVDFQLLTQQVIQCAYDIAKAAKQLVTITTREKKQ

Chain of S273A-paxillin-GFP (P49024 whole entry S273A): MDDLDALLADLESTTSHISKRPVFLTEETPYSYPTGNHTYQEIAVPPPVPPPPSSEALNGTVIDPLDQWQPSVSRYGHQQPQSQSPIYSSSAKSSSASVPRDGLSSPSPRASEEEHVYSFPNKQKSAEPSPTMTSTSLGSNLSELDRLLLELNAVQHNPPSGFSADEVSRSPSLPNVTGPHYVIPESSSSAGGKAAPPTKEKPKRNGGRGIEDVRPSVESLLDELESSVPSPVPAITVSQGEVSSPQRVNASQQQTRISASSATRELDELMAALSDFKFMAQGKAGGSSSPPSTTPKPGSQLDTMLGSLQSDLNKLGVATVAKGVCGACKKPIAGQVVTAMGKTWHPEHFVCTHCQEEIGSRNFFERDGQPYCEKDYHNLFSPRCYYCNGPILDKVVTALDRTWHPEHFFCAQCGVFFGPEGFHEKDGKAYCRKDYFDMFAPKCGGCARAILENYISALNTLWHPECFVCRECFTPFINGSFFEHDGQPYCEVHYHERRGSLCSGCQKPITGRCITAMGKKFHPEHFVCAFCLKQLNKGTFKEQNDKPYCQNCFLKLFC
Chain of S273D-paxillin-GFP (P49024 whole entry S273D): as the sequence (P49024 whole entry S273A) above, with A273D counted along it

B1: FLAG-GIT1 (expressed in CHO-K1 cells) (natural protein)
chain: MSRKGPRAEVCADCSAPDPGWASISRGVLVCDECCSVHRSLGRHISIVKHLRHSAWPPTLLQMVHTLASNGANSIWEHSLLDPAQVQSGRRKANPQDKVHPIKSEFIRAKYQMLAFVHKLPCRDDDGVTAKDLSKQLHSSVRTGNLETCLRLLSLGAQANFFHPEKGTTPLHVAAKAGQTLQAELLVVYGADPGSPDVNGRTPIDYARQAGHHELAERLVECQYELTDRLAFYLCGRKPDHKNGHYIIPQMADSLDLSELAKAAKKKLQALSNRLFEELAMDVYDEVDRRENDAVWLATQNHSTLVTERSAVPFLPVNPEYSATRNQGRQKLARFNAREFATLIIDILSEAKRRQQGKSLSSPTDNLELSLRSQSDLDDQHDYDSVASDEDTDQEPLRSTGATRSNRARSMDSSDLSDGAVTLQEYLELKKALATSEAKVQQLMKVNSSLSDELRRLQREIHKLQAENLQLRQPPGPVPTPPLPSERAEHTPMAPGGSTHRRDRQAFSMYEPGSALKPFGGPPGDELTTRLQPFHSTELEDDAIYSVHVPAGLYRIRKGVSASAVPFTPSSPLLSCSQEGSRHTSKLSRHGSGADSDYENTQSGDPLLGLEGKRFLELGKEEDFHPELESLDGDLDPGLPSTEDVILKTEQVTKNIQELLRAAQEFKHDSFVPCSEKIHLAVTEMASLFPKRPALEPVRSSLRLLNASAYRLQSECRKTVPPEPGAPVDFQLLTQQVIQCAYDIAKAAKQLVTITTREKKQ
- fold decrease of GIT1 binding against WT-paxillin (S273A-paxillin-GFP): 2 fold
- fold increase of GIT1 binding against WT-paxillin (S273D-paxillin-GFP): ~3 fold

B2: phospho–S273-paxillin (untagged WT-paxillin synthesized in vitro and incubated with CA-myc-PAK1) (natural protein)
chain: not shown
modifications: phosphoserine at 273
- fold increase of phospho–S273-paxillin bound to FLAG-GIT1 with CA- versus KD-PAK [1]: 7 fold
